Results on three substances are retold here after patent US20100113575A1.

Assay [1] addresses autoprocessed, secreted PCSK9-152FLAG-V5/His (human) (UniProt Q8NBP7). Kind of assay: TR-FRET on cell media, 50,000 cells per well. On the technique in general: TR-FRET usually uses a lanthanide donor and a delayed reading to cut background.
The target in assay [2] is LDLR (UniProt P01130). Kind of assay: cell-based or functional assay.

Consider Eu+3-labeled anti-FLAG M1 antibody, for which the window of the TR-FRET ratio against PCSK9-152FLAG-V5/His-S386A in assay [1] amounted to 3 fold.
On to “purified nonprocessed D186A PCSK9 (from UniProt Q8NBP7 31-692) (enzyme)”, for which, in assay [2], the activity in PCSK9-dependent LDL uptake against processed PCSK9 was 20 fold.
Turning to “purified processed D186A PCSK9 (with retained pro domain) (from UniProt A8T644 31-152; Q8NBP7 153-692) (enzyme)”, in assay [2], the EC50, inhibition of diI-LDL uptake in HEK293 cells was found to be 189 nM and the fold decrease in potency in the PCSK9-dependent LDL-uptake assay against WT PCSK9 came to 4 fold.
